Results: article PMC9207808 (ACS Chemical Biology, 2022)
Several values for one entry are separate records, joined by “and”; a condition that tells them apart may be missing. Equal values may be shown once. Read-outs that look alike come from different tables or passages of the source. No end group written: not given here.

What was measured:
[1] = target: Doc toxin of Salmonella enterica serovar Typhimurium (DocSTm) (Salmonella enterica serovar Typhimurium); test: SPR; DocSTm immobilised on a Series S NTA chip (150 nM, 200-400 RU); analytes in single-cycle kinetics, typically six concentrations, kinetic 1:1 fit; 22 °C; 10 mM HEPES, 500 mM NaCl, 50 μM EDTA, 0.005% TWEEN 20, pH 8.0
[2] = target: Doc1-122–His6 (DocSTm toxin) (Salmonella typhimurium); test: SPR; Biacore S200; Doc-His6 captured on a Series S NTA chip (200-400 RU); peptide as analyte, single-cycle kinetics, six concentrations (3-fold dilutions), 30 uL/min; 22 C; 10 mM HEPES, 500 mM NaCl, 50 uM EDTA, 0.005% TWEEN 20, pH 8.0; kinetic 1:1 fit
[3] = target: Doc1-122–His6 (DocSTm toxin) (Salmonella typhimurium); test: as above; remark: listed apart in the source

Binder	Kd [1] [nM]	fold improvement of koff against peptide 1 [1] [fold]	fold improvement of kon against peptide 1 [1] [fold]	koff [2] [s⁻¹]	kon [2] [M⁻¹ s⁻¹]	Kd [3]	koff [3]	kon [3]	Kd [2] [nM]
Ac-WMADEFAAIMAVHGNELRELADK [peptide 3 (Phd 52-73 D53A)]	0.013	1.5	4						
Ac-FAAIMAVHGNELREL-OH [peptide 23 (PhdSTm56-70)]				0.00279	1.41e+06	1.85 nM and 1.94 nM and 2.18 nM	0.00284 s⁻¹ and 0.00279 s⁻¹ and 0.00276 s⁻¹	1.53e+06 M⁻¹ s⁻¹ and 1.44e+06 M⁻¹ s⁻¹ and 1.26e+06 M⁻¹ s⁻¹	
Ac-EFAAIMAVHGNELRELA-OH [peptide 22 (PhdSTm55-71)]				0.000503	1.45e+06	0.342 nM and 0.336 nM and 0.365 nM	0.000521 s⁻¹ and 0.000492 s⁻¹ and 0.000495 s⁻¹	1.5e+06 1/(M s) (2×) and 1.4e+06 1/(M s)	
Ac-WMDDEFAAIMAVHGNELREAADK [peptide 17 (Phd 52-73 L70A)]	1.55								
Ac-WMDAEFAAIMAVHGNELRELADK [peptide 4 (Phd 52-73 D54A)]	0.013	1.5	4						
Ac-EFAAIMAVHGNELRELADK-OH [peptide 21 (PhdSTm55-73)]				0.000496	1.25e+06	0.41 nM and 0.412 nM and 0.365 nM	0.000551 s⁻¹ and 0.000501 s⁻¹ and 0.000436 s⁻¹	1.3e+06 1/(M s) and 1.2e+06 1/(M s) (2×)	0.396
